Measurements: the supplement of paper PMC9732359
± gives the uncertainty stated by the source.

Assay: protein stability index of a GFP-peptide fusion (yeast GPS) (PSI 1-4); higher = more stable; sorted into four equal gates, so the index is relative within each strain
Procedure, shortened: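 Plasmids isolated from each sorting gate were PCR-amplified and Illumina-sequenced, and barcodes assigned the reads to strains. The gates, four of equal size, were set by GFP/Cherry fluorescence ratio on mid-log cultures in leucine-free medium. These cultures were yeast carrying a pooled library of tiled 17-residue yeast protein peptides fused downstream of GFP on a plasmid that also expresses Cherry. The protein stability index is the sum of every gate's read frequency times its gate number.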

## QNFAEFMTKLLEVANDL [IRR1]
doa10∆
  protein stability index: 2.06 ± 0.11
pdr5∆
  protein stability index: 2.29 ± 0.097
san1∆
  protein stability index: 3.13 ± 0.085
ubr1∆
  protein stability index: 2.65 ± 0.14

## AQKYASIVGVDLSSAAS [FAS2]
doa10∆
  protein stability index: 2.13 ± 0.069
pdr5∆
  protein stability index: 2.21 ± 0.082
san1∆
  protein stability index: 1.66 ± 0.12
ubr1∆
  protein stability index: 1.75 ± 0.062

## TEELSITGEKLDTQLND [SMC1]
doa10∆
  protein stability index: 1.86 ± 0.068
pdr5∆
  protein stability index: 2.41 ± 0.083
san1∆
  protein stability index: 2.29 ± 0.12
ubr1∆
  protein stability index: 1.36 ± 0.034

## SYSPTSPSYSPTSPSYS [RPO21]
doa10∆
  protein stability index: 2.53 ± 0.042
pdr5∆
  protein stability index: 2.66 ± 0.041
san1∆
  protein stability index: 2.78 ± 0.037
ubr1∆
  protein stability index: 2.76 ± 0.034

## NSTNSNTTKPAFGGLNF [YJL041W/NSP1]
doa10∆
  protein stability index: 3.29 ± 0.082
pdr5∆
  protein stability index: 3.29 ± 0.09
san1∆
  protein stability index: 3.14 ± 0.059
ubr1∆
  protein stability index: 3.47 ± 0.076

## LETILEEFRNLAALNVW [SSN2]
doa10∆
  protein stability index: 2.9 ± 0.11
pdr5∆
  protein stability index: 2.98 ± 0.1
san1∆
  protein stability index: 2.52 ± 0.11
ubr1∆
  protein stability index: 3.32 ± 0.057

## EVEVSTRDLFDLEKDRA [RPO31]
doa10∆
  protein stability index: 3.07 ± 0.052
pdr5∆
  protein stability index: 3.37 ± 0.061
san1∆
  protein stability index: 3.28 ± 0.042
ubr1∆
  protein stability index: 3.23 ± 0.048

## PNADDIRDSIPQMDSFD [DIS3]
doa10∆
  protein stability index: 2.79 ± 0.078
pdr5∆
  protein stability index: 2.86 ± 0.089
san1∆
  protein stability index: 3.14 ± 0.09
ubr1∆
  protein stability index: 3.06 ± 0.052

## GCLIKNLPRTKAKSVVN [RMP1]
doa10∆
  protein stability index: 2 ± 0.11
pdr5∆
  protein stability index: 2.52 ± 0.2
san1∆
  protein stability index: 1.92 ± 0.17
ubr1∆
  protein stability index: 2.13 ± 0.12

## PHHNQSPRNTYQCAMGK [RET1]
doa10∆
  protein stability index: 2.68 ± 0.17
pdr5∆
  protein stability index: 2.97 ± 0.14
san1∆
  protein stability index: 3 ± 0.14
ubr1∆
  protein stability index: 2.89 ± 0.24

## ISTSFCFICLLHLANEH [BRN1]
doa10∆
  protein stability index: 1.67 ± 0.12
pdr5∆
  protein stability index: 1.21 ± 0.13
ubr1∆
  protein stability index: 1.35 ± 0.13

## EEAYDNPHDTLNRIKKY [PRP8]
doa10∆
  protein stability index: 3.42 ± 0.13
pdr5∆
  protein stability index: 3.2 ± 0.093
san1∆
  protein stability index: 2.27 ± 0.17
ubr1∆
  protein stability index: 3.4 ± 0.085

## HRKHIAVLKKIQSKAVE [YCG1]
doa10∆
  protein stability index: 2.55 ± 0.11
pdr5∆
  protein stability index: 2.81 ± 0.097
san1∆
  protein stability index: 2.69 ± 0.1
ubr1∆
  protein stability index: 2.57 ± 0.064

## NIQGITKPAIRRLARRG [HHF1]
doa10∆
  protein stability index: 3.27 ± 0.1
pdr5∆
  protein stability index: 3.24 ± 0.093
san1∆
  protein stability index: 2.89 ± 0.092
ubr1∆
  protein stability index: 3.35 ± 0.066

## SALIENNLFRIIAELSF [YJL039C/NUP192]
doa10∆
  protein stability index: 2.22 ± 0.066
pdr5∆
  protein stability index: 2.34 ± 0.056
san1∆
  protein stability index: 2.04 ± 0.074
ubr1∆
  protein stability index: 2.53 ± 0.052

## IHALAAKLLQENDTTLV [FAS1]
doa10∆
  protein stability index: 2.53 ± 0.13
pdr5∆
  protein stability index: 2.8 ± 0.14
san1∆
  protein stability index: 2.86 ± 0.12
ubr1∆
  protein stability index: 3.33 ± 0.18

## VDNTTEQSNSRKRTRSE [YCG1]
doa10∆
  protein stability index: 3.27 ± 0.18
san1∆
  protein stability index: 2.83 ± 0.1

## KRFLILQGEVENIAQMK [SMC4]
doa10∆
  protein stability index: 3.05 ± 0.29
pdr5∆
  protein stability index: 2.98 ± 0.14
san1∆
  protein stability index: 3.2 ± 0.14
ubr1∆
  protein stability index: 2.79 ± 0.098

## DRQIINEKMQLLKDIFA [SIR4]
doa10∆
  protein stability index: 2.25 ± 0.042
pdr5∆
  protein stability index: 2.64 ± 0.054
san1∆
  protein stability index: 2.31 ± 0.058
ubr1∆
  protein stability index: 1.92 ± 0.047

## APNHSPEIDNLDDLVVL [RRP6]
doa10∆
  protein stability index: 3.16 ± 0.11
pdr5∆
  protein stability index: 3.51 ± 0.11
san1∆
  protein stability index: 3 ± 0.15
ubr1∆
  protein stability index: 2.71 ± 0.088

## DTVEEKKEEKLNIGKNF [SIR4]
doa10∆
  protein stability index: 2.42 ± 0.16
pdr5∆
  protein stability index: 2.71 ± 0.25
san1∆
  protein stability index: 3.34 ± 0.2
ubr1∆
  protein stability index: 2.42 ± 0.13

## NNGNNSTSIQYHGISKN [POP6]
doa10∆
  protein stability index: 2.48 ± 0.063
pdr5∆
  protein stability index: 2.51 ± 0.06
san1∆
  protein stability index: 2.65 ± 0.044
ubr1∆
  protein stability index: 2.22 ± 0.07

## KNYDATDKPFSSTQDVI [CSI1]
doa10∆
  protein stability index: 2.37 ± 0.13
pdr5∆
  protein stability index: 2.96 ± 0.1
san1∆
  protein stability index: 2.85 ± 0.088
ubr1∆
  protein stability index: 3.06 ± 0.086

## HVKAGKGLIKVNGSPIT [RPS16A]
doa10∆
  protein stability index: 2.62 ± 0.065
pdr5∆
  protein stability index: 2.78 ± 0.059
san1∆
  protein stability index: 2.87 ± 0.061
ubr1∆
  protein stability index: 3.1 ± 0.051

## VEKGTPLGKILLKGDNI [SME1]
doa10∆
  protein stability index: 3.58 ± 0.088
pdr5∆
  protein stability index: 3.43 ± 0.093
san1∆
  protein stability index: 3.38 ± 0.14
ubr1∆
  protein stability index: 3.59 ± 0.078

## LTGEAEIEQPVTTFVFT [FAS1]
doa10∆
  protein stability index: 3.16 ± 0.083
pdr5∆
  protein stability index: 2.98 ± 0.067
san1∆
  protein stability index: 2.64 ± 0.096
ubr1∆
  protein stability index: 2.4 ± 0.055

## KLQENRTLLTEEIEPKL [SMC2]
doa10∆
  protein stability index: 2.91 ± 0.2
pdr5∆
  protein stability index: 3.29 ± 0.18
san1∆
  protein stability index: 2.76 ± 0.15
ubr1∆
  protein stability index: 3.19 ± 0.14

## MNIIQQQQQQNTNNNDT [GAL11]
doa10∆
  protein stability index: 2.43 ± 0.042
pdr5∆
  protein stability index: 2.63 ± 0.047
san1∆
  protein stability index: 2.46 ± 0.044
ubr1∆
  protein stability index: 2.52 ± 0.04

## YVKEKLEAVNSMIEKGG [RPN7]
doa10∆
  protein stability index: 2.93 ± 0.14
pdr5∆
  protein stability index: 2.98 ± 0.1
san1∆
  protein stability index: 2.77 ± 0.08
ubr1∆
  protein stability index: 2.83 ± 0.06

## SQYFKFKNDFNSFYYTS [RPN9]
doa10∆
  protein stability index: 2.1 ± 0.075
pdr5∆
  protein stability index: 2.33 ± 0.06
san1∆
  protein stability index: 2.51 ± 0.084
ubr1∆
  protein stability index: 2.58 ± 0.056

## CKNFEKTQLGSTMTEPV [GAL11]
doa10∆
  protein stability index: 2.81 ± 0.05
pdr5∆
  protein stability index: 2.84 ± 0.065
san1∆
  protein stability index: 2.58 ± 0.054
ubr1∆
  protein stability index: 2.84 ± 0.039

## CVKLTVRSLLEVVQTGA [PRE6]
doa10∆
  protein stability index: 2.44 ± 0.3
ubr1∆
  protein stability index: 2.27 ± 0.29

## ILADEMGLGKTLQTISF [ISW2]
doa10∆
  protein stability index: 3.09 ± 0.07
pdr5∆
  protein stability index: 3.06 ± 0.066
san1∆
  protein stability index: 2.91 ± 0.057
ubr1∆
  protein stability index: 2.77 ± 0.061

## IQKEEEPENNTVIEGVK [SWI3]
doa10∆
  protein stability index: 3.3 ± 0.073
pdr5∆
  protein stability index: 3.06 ± 0.072
san1∆
  protein stability index: 3.28 ± 0.048
ubr1∆
  protein stability index: 3.25 ± 0.053

## RPFGVALLIAGHDADDG [PUP2]
doa10∆
  protein stability index: 1.66 ± 0.16
pdr5∆
  protein stability index: 2.66 ± 0.21
ubr1∆
  protein stability index: 2.6 ± 0.14

## DLIADTITNSSSSSDII [YML103C/NUP188]
doa10∆
  protein stability index: 2.89 ± 0.077
pdr5∆
  protein stability index: 2.46 ± 0.046
san1∆
  protein stability index: 2.63 ± 0.04
ubr1∆
  protein stability index: 2.56 ± 0.044

## PIDNNIIFASTKLGFTF [SNU114]
doa10∆
  protein stability index: 2.63 ± 0.05
pdr5∆
  protein stability index: 2.52 ± 0.047
san1∆
  protein stability index: 2.38 ± 0.054
ubr1∆
  protein stability index: 2.67 ± 0.035

## AKLSDTLIIDQVRKDLG [NUT1]
doa10∆
  protein stability index: 2.83 ± 0.11
pdr5∆
  protein stability index: 2.32 ± 0.16
san1∆
  protein stability index: 2.7 ± 0.13
ubr1∆
  protein stability index: 2.85 ± 0.09

## IEKSRLFSEKTIRYLMQ [SNF6]
doa10∆
  protein stability index: 1.82 ± 0.069
pdr5∆
  protein stability index: 2.29 ± 0.048
san1∆
  protein stability index: 2.28 ± 0.084
ubr1∆
  protein stability index: 1.86 ± 0.055

## CEKWAASSWAKKIAQRE [RPL14A]
doa10∆
  protein stability index: 2.35 ± 0.089
pdr5∆
  protein stability index: 3.16 ± 0.12
san1∆
  protein stability index: 2.24 ± 0.17
ubr1∆
  protein stability index: 2.06 ± 0.062

## TNDDSIKNLTVQLSPSN [RGR1]
doa10∆
  protein stability index: 2.8 ± 0.074
pdr5∆
  protein stability index: 2.79 ± 0.059
san1∆
  protein stability index: 2.56 ± 0.056
ubr1∆
  protein stability index: 2.58 ± 0.05

## PNIRTMSGTTKRLNGKR [SSN2]
doa10∆
  protein stability index: 2.24 ± 0.23
pdr5∆
  protein stability index: 2.74 ± 0.22
san1∆
  protein stability index: 2.39 ± 0.17
ubr1∆
  protein stability index: 3.46 ± 0.11

## QINPTRETNDDIWRVAG [SNF2]
doa10∆
  protein stability index: 2.6 ± 0.064
pdr5∆
  protein stability index: 2.26 ± 0.066
san1∆
  protein stability index: 2.25 ± 0.069
ubr1∆
  protein stability index: 2.14 ± 0.052

## NSSNLSYNNTGISDDEN [RRP4]
doa10∆
  protein stability index: 2.53 ± 0.07
pdr5∆
  protein stability index: 2.87 ± 0.064
san1∆
  protein stability index: 2.87 ± 0.049
ubr1∆
  protein stability index: 2.79 ± 0.06

## VYESEMEQCKQRYQDLS [YIL149C/MLP2]
doa10∆
  protein stability index: 3.27 ± 0.09
pdr5∆
  protein stability index: 3.36 ± 0.11
san1∆
  protein stability index: 3.03 ± 0.081
ubr1∆
  protein stability index: 3.24 ± 0.094

## NNPLLLIVDVKQQGVGL [RPN8]
doa10∆
  protein stability index: 1.27 ± 0.14
pdr5∆
  protein stability index: 1.87 ± 0.1
san1∆
  protein stability index: 1.87 ± 0.15
ubr1∆
  protein stability index: 2.15 ± 0.1

## KIVYIAPLKALVQEQVR [BRR2]
doa10∆
  protein stability index: 1.4 ± 0.045
pdr5∆
  protein stability index: 1.59 ± 0.044
san1∆
  protein stability index: 1.41 ± 0.089
ubr1∆
  protein stability index: 1.3 ± 0.051

## KRTIRIKTQQHILPEVP [TAF14]
doa10∆
  protein stability index: 1.92 ± 0.059
pdr5∆
  protein stability index: 2.02 ± 0.049
san1∆
  protein stability index: 2.2 ± 0.066
ubr1∆
  protein stability index: 2.07 ± 0.063

## IDMLPMLLGTDLCSLKP [DIS3]
doa10∆
  protein stability index: 2.74 ± 0.066
pdr5∆
  protein stability index: 2.71 ± 0.065
san1∆
  protein stability index: 2.69 ± 0.07
ubr1∆
  protein stability index: 2.45 ± 0.057

## LGWIHTQTEELKFMAAS [PRP8]
doa10∆
  protein stability index: 2.59 ± 0.087
pdr5∆
  protein stability index: 2.62 ± 0.077
san1∆
  protein stability index: 2.64 ± 0.063
ubr1∆
  protein stability index: 2.71 ± 0.063

## DLLPNSFAKLVPCEGKD [SMC2]
doa10∆
  protein stability index: 2.2 ± 0.04
pdr5∆
  protein stability index: 2.73 ± 0.038
san1∆
  protein stability index: 2.46 ± 0.053
ubr1∆
  protein stability index: 2.45 ± 0.039

## SPSERIEPLEINIQSFK [BRR2]
doa10∆
  protein stability index: 2.51 ± 0.064
pdr5∆
  protein stability index: 2.53 ± 0.046
san1∆
  protein stability index: 2.55 ± 0.047
ubr1∆
  protein stability index: 1.97 ± 0.032
